Data reported in PMC5438308, “Structural and dynamic insights into the role of conformational switching in the nuclease activity of the Xanthomonas albilineans Cas2 in CRISPR-mediated adaptive immunity” (Structural Dynamics, 2017).

Target: the molecule itself
Experiment: SEC

B1: Xanthomonas albilineans Cas2 (enzyme)
chain: MMVLVSYDVSTSSPGGDKRLRKVAKACRDLGQRVQFSVFEIEVDPAQWTALRQRLCDLIDPDIDSLRFYHLGAKWEARVEHVGAKPSLDLKGPLIF
notes: Cas2 of Xanthomonas albilineans, subtype I-C CRISPR-Cas system; synthetic cas2 gene in pET21a; residue numbers in the structure run to 96 (C-terminal tails 87-96 / 86-96 not modelled); also called XaCas2; WT XaCas2; not shown: His6, C-terminal, kept
In the case of B1, the “stoichiometry N” value is reported as 2.
